System: 4-(sulfamoyl)benzoyladenosine-pYEEI conjugate (9)

Src tyrosine kinase
enhancement of catalytic activity and phosphorylation: enhanced the catalytic activity and phosphorylation by at least 40%

Reference: patent publication US20110034670
